Article PMC6765145
Where two headings read alike, the source gives them in different places.

Experiments:
Assay in all cases: EMSA
Aca2 [1] = molecular target: T1, Aca2 (Pectobacterium carotovorum temperate …, UniProt H9C180 1-116)
T1 sequence: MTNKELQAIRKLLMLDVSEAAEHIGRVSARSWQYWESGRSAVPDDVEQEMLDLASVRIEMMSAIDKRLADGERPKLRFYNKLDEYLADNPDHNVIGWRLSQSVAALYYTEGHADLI

Aca2 [2] = molecular target: T1, Aca2; remark: listed apart in the source
Aca2 [3] = molecular target: T1, Aca2; remark: listed apart in the source

B1: wtIR1-scIR2 promoter probe (dsDNA)
DNA 1: CACGAATGCGGCCTTAGCGATTAAAAAATATGAAATGCCTTGCTTGTTCGCGATTGCGAACATATAATTTATTCATCGGAGACTACTGCAGGTCTTCGCTCCTAACGAGGATTCCACAATGC
DNA 2: GCATTGTGGAATCCTCGTTAGGAGCGAAGACCTGCAGTAGTCTCCGATGAATAAATTATATGTTCGCAATCGCGAACAAGCAAGGCATTTCATATTTTTTAATCGCTAAGGCCGCATTCGTG
Kd (Aca2 [1]): 1.07 nM

B2: scIR1-wtIR2 promoter probe (dsDNA)
DNA 1: CACGAATGCGGCCTTAGCGATTAAAAAATATGAAATGCCTTGCTTGAGACACGAGAGTCTCATATAATTTATTCATCGGTTCGAGATGGCTCGAATCGCTCCTAACGAGGATTCCACAATGC
DNA 2: GCATTGTGGAATCCTCGTTAGGAGCGATTCGAGCCATCTCGAACCGATGAATAAATTATATGAGACTCTCGTGTCTCAAGCAAGGCATTTCATATTTTTTAATCGCTAAGGCCGCATTCGTG
binding result (Aca2 [2]): no binding

B3: scIR1-scIR2 promoter probe (dsDNA)
DNA 1: CACGAATGCGGCCTTAGCGATTAAAAAATATGAAATGCCTTGCTTGAGACACGAGAGTCTCATATAATTTATTCATCGGAGACTACTGCAGGTCTTCGCTCCTAACGAGGATTCCACAATGC
DNA 2: GCATTGTGGAATCCTCGTTAGGAGCGAAGACCTGCAGTAGTCTCCGATGAATAAATTATATGAGACTCTCGTGTCTCAAGCAAGGCATTTCATATTTTTTAATCGCTAAGGCCGCATTCGTG
binding result (Aca2 [3]): no binding
